Measured values published in US20240350583A1, “COMPOSITION FOR PREVENTING OR TREATING FIBROTIC DISEASES, COMPRISING HAPLN1” (Chung Ang University Industry Academic Cooperation …, priority 2021, published 2024).

Columns and labels:
[1] = tested on: bleomycin-induced pulmonary fibrosis; conditions: orally once daily, 14-day and 28-day groups; cited from earlier work
[2] = tested on: SAEMyoF system (small airway epithelial cells and adult fibroblasts); assay: BioMAP Fibrosis panel, SAEMyoF system (pulmonary fibrosis model), ELISA; assay type: cell-based
From the text: (§1) The anti-fibrotic action effect of the composition of the present disclosure on pulmonary fibrosis and kidney fibrosis was verified by examining the expression level of various fibrosis markers using the BioMAP Fibrosis Panel (provided by Eurofins discovery).
(§2) BioMAP Fibrosis panel consists of three models, SAEMyoF system (co-culturing small airway epithelial cells and adult fibroblasts), REMyOF system (co-culture of renal proximal tubule epithelial cells and adult fibroblasts), and MyOF system (differentiated lung myofibroblasts). Here, the SAEMyoF system represents interstitial lung diseases (IDL), including pulmonary fibrotic diseases such as idiopathic pulmonary fibrosis (IPF), and the REMyOF system represents kidney fibrosis disease, which is associated with end-stage renal failure. However, experiments were conducted to confirm the effect of the MyoF system only on myofibroblasts.
(§3) (1) Each primary cell was used by pooling cells from multiple donors (n=3 to 6), and cells were first cultured in 96-well plates to confluence before adding a peripheral blood mononuclear cell (PBMC).
(§4) (2) Subsequently, the cells were then each treated with the composition of the present disclosure (rhHAPLN1 protein content of 0, 3.7, 11, and 33 ng/ml) at different concentrations and cultured for 1 hour.
(§5) (3) The plates were then treated with TNF and TGFβ1 and incubated for 48 hours.
(§6) (4) Direct enzyme-linked immunosorbent assay (ELISA) was performed on the expression levels of various biomarkers.
(§7) Each quantitative value was compared as a relative fold change compared to the vehicle control. Statistical processing was performed using unpaired t-test, significant differences vs vehicle control, *p<0.05, **p<0.01, and ***p<0.001.

[3] = tested on: human hepatic stellate cell (HHSC); assay: TGFβ1-induced fibrosis of human hepatic stellate cells, αSMA western blot; assay type: cell-based
Method: (1) Human hepatic stellate cells (primary human hepatic stellate cell (HHSC; iXCells Biotechnologies, 10HU-210) were seeded (1.5×10^5 cells/well) in a 6-well plate according to the experimental scheme in FIG. 2A and incubated in stellate cell growth medium (iXCells Biotechnologies, MD-0014) in an incubator at 37° C. 5% CO2 for 24 hours.
(2) After replacing with serum-free DMEM medium, the medium was incubated for 24 hours.
(3) The plates were then treated with TGF31 (2 ng/ml) to induce fibrosis and incubated for 24 hours.
(4) Afterwards, each well of the plate was then treated with the composition of the present disclosure at rhHAPLN1 protein content of 0, 3, 10, 30, and 100 ng/ml and pirfenidone 100 μg/mL and 200 μg/mL, respectively, and incubated for 24 hours.
(5) Each sample was then treated with cell lysis buffer and harvested.
(6) Western blotting was performed on the samples. Here, anti-αSMA Ab (Abcam, ab7817), anti-GAPDH Ab (Santa Cruz, sc-32233) were used as primary antibodies and HRP-conjugated anti-mouse IgG Ab (CST, #7076) as secondary antibodies to confirm the protein expression levels of αSMA and GAPDH.

[4] = tested on: REMyOF system (renal proximal tubule epithelial cells and adult fibroblasts); assay: BioMAP Fibrosis panel, REMyOF system (kidney fibrosis model), ELISA; assay type: cell-based
From the text: as §1, §2, §3, §4, §5, §6, §7

[5] = regardless of rhHAPLN1 content (3.7, 11, 33 ng/ml)

Cc1ccc(=O)n(-c2ccccc2)c1 [pirfenidone, reference compound]
level of TGFβ1 increased by bleomycin [1]: decreased | level of periostin increased by bleomycin [1]: decreased

B1: rhHAPLN1: recombinant human HAPLN1 protein of SEQ ID NO: 1 produced in CHO-K1 cells, stabilized in acetic acid buffer, sucrose, PS80, pH 5.0 (protein, listed as Homo sapiens)
chain: MKSLLLLVLISICWADHLSDNYTLDHDRAIHIQAENGPHLLVEAEQAKVFSHRGGNVTLPCKFYRDPTAFGSGIHKIRIKWTKLTSDYLKEVDVFVSMGYHKKTYGGYQGRVFLKGGSDSDASLVITDLTLEDYGRYKCEVIEGLEDDTVVVALDLQGVVFPYFPRLGRYNLNFHEAQQACLDQDAVIASFDQLYDAWRGGLDWCNAGWLSDGSVQYPITKPREPCGGQNTVPGVRNYGFWDKDKSRYDVFCFTSNFNGRFYYLIHPTKLTYDEAVQACLNDGAQIAKVGQIFAAWKILGYDRCDAGWLADGSVRYPISRPRRRCSPTEAAVRFVGFPDKKHKLYGVYCFRAYN
expression level of collagen I compared to vehicle control (FIG. 11A) [2, 5]: consistently significantly reduced | expression level of αSMA, fold change compared to vehicle control (FIG. 11A) ([2]; regardless of rhHAPLN1 content (3.7, 11, 33 ng/ml), TNF and TGFβ1 48 hours): ≤ 0.9 fold | expression level of collagen I, fold change compared to vehicle control (FIG. 11A) ([2]; rhHAPLN1 11 ng/ml): ≤ 0.8 fold | expression level of αSMA compared to composition that does not include rhHAPLN1 protein (FIG. 2C) ([3]; TGFβ1 (2 ng/ml) 24 h, then rhHAPLN1 3, 10, 30, 100 ng/ml 24 h): significantly lower | anti-fibrotic action from αSMA western blot band, compared to pirfenidone (FIG. 2B) ([3]; all rhHAPLN1 contents, pirfenidone 100 and 200 μg/mL): much better anti-fibrotic action compared to pirfenidone | anti-fibrotic efficacy compared to pirfenidone at 100 μg/mL and 200 μg/mL ([3]; rhHAPLN1 3 ng/ml, αSMA): much higher anti-fibrotic efficacy | rhHAPLN1 protein content showing the most excellent anti-fibrotic efficacy ([3]; αSMA): 3 ng/mL | optimal concentration for anti-fibrotic efficacy in the kidney (assumed) ([4]; collagen I): 11 ng/mL | expression level of collagen I, fold change compared to vehicle control (FIG. 11B) [4, 5]: ≤ 0.9 fold | expression level of collagen I, fold change compared to vehicle control (FIG. 11B) ([4]; rhHAPLN1 11 ng/ml): ~0.7 fold
